# Reference: patent publication US20030235860A1, “Interactions between AR, ER, TR2, and TR4” (priority 1999, published 2003)
# No end group written: not given here.
# Key:
# [1] = molecular target: T1, interaction between the GAL4-ER and VPI6-TR2 (Homo sapiens, UniProt P03372, G400V); assay: Mammalian two-hybrid assay GAL4-ER / VP16-TR2; assay type: cell-based; settings: PC-3 cells; presence of E2; co-transfection of blocker plasmid
# T1 construct: GAL4-DBD fused with ER-LBD (GAL4-ER, aa 282 to 595); expressed in transfected cells; host or cells: H1299, PC-3
# T1 sequence (P03372 282-595 G400V): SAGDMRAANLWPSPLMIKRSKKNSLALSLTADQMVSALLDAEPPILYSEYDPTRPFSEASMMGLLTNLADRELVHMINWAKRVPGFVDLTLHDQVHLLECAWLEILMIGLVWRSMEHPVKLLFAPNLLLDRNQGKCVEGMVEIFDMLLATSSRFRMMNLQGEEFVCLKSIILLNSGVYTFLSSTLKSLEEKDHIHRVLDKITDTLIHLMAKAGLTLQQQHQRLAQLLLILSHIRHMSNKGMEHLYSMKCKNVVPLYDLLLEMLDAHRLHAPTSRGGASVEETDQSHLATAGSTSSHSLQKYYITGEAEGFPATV
# T1 sequence (P13056 1-603 partner): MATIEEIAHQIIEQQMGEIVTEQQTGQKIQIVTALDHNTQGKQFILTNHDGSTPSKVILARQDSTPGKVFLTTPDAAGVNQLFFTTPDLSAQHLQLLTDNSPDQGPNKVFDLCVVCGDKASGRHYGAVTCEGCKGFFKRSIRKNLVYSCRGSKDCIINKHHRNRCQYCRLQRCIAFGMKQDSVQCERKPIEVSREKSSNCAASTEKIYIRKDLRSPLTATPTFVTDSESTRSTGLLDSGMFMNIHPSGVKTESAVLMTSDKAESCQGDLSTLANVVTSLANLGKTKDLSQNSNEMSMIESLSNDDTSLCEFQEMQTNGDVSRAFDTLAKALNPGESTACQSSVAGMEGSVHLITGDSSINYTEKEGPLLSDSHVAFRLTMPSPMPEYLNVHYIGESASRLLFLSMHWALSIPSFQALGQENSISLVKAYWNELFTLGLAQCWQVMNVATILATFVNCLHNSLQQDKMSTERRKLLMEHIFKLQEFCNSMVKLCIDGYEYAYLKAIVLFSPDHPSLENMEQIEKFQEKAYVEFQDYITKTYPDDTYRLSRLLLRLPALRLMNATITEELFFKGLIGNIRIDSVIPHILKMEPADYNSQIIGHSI
# Protocol: Transfections were performed using the calcium-phosphate precipitation method described above. […] 3 μg of a VPI6-TR2 expression plasmid and 3 μg pG5-CAT reporter plasmid. CAT assays were performed as described above.
# Cells were also transfected with a β-galactosidase expression plasmid, pCMV-β-gal, as an internal control for transfection efficiency.
# TR2 = molecular target: T2, TR2 (Homo sapiens, UniProt P13056); assay: TR2-mediated transactivation reporter assay; assay type: cell-based; settings: PC-3 cells; 1 μg expression plasmid
# T2 sequence (P13056 1-603): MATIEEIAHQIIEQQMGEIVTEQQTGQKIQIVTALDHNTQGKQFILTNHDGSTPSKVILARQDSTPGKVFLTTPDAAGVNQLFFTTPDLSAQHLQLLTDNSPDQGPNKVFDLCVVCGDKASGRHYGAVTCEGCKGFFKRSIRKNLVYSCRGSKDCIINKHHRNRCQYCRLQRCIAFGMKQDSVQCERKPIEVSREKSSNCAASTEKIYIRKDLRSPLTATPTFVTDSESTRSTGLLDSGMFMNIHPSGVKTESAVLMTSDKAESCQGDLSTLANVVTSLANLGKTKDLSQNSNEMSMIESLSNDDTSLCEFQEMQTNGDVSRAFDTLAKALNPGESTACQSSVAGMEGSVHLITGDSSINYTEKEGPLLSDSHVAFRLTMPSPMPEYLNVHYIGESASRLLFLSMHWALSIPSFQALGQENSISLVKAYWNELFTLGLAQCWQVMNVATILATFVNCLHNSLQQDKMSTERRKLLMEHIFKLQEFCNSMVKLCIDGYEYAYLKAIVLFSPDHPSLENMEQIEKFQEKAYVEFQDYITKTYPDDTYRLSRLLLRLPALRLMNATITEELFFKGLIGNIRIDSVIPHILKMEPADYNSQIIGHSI
# Protocol: Transfections and chloramphenicol acetyltransferase (CAT) assays were performed as described previously. Yeh, & Chang, Proc. Natl. Acad. Sci. 93, 5517-5521 (1996). Briefly, 4×10^5 cells were plated in 60-mm dishes and cultured for 24 h, and then the medium was changed to phenol red free DMEM with 5% charcoal-stripped FCS 2 h before transfection. The cells were co-transfected with TR2 and/or ER expression plasmids with 2 μg of TR2-TK-CAT reporter or 1 μg of ERE-CAT reporter gene plasmid, as indicated in the Figures, by using the calcium phosphate precipitation method. A β-gal actosidase expression plasmid, pCMV-β-gal, was transfected in all transfections as an internal control for normalizing transfection efficiency. The total amount of DNA was adjusted up to 10.5 μg with parent vectors, pSG5 or pCMV in each transcriptional activity assay. […] The cells were then harvested and whole cell extracts were used for CAT assay. The CAT activity was quantitated by Phosphorlmager (Molecular Dynamics). Data are presented as means±S.D. of at least three independent experiments.
# The CAT reporter assay was used to study the potential consequence of the formation of heterodimers between the TR2 and ER. […] More specifically, H1299 cells were transiently cotransfected with 2 μg of DR4-TK-CAT reporter plasmid and 3 μg of TR2 expression plasmid together with increasing amounts of the ER expression vector. […] Cells were also transfected with internal control reporter plasmid, pCMV-β-gal, as an internal control for transfection efficiency. Luciferase activity was then analyzed following manufacturer's instructions (Promega). […] Similar results were obtained when the DR4-TK-CAT reporter with DR1-HBV-LUC were replaced, another TR2 response element (FIG. 7C).
# This conclusion was further confirmed by using the chimera receptor, TR2-androgen receptor (AR) ARp-TR2, which was generated by swapping TR2 proximal box (P-box) with that found in the AR. […] Luciferase activity was then analyzed following manufacturer's instructions (Promega). […]
# ER-ERE = molecular target: T3, ER-ERE (Homo sapiens, UniProt P03372); assay: EMSA with ERE probe; assay type: binding
# T3 construct: Human full-length ER was inserted into the EcoRI site of pSG5 to produce pSG5-ER; host or cells: TNT coupled reticulocyte lysate, in vitro translation
# T3 sequence (P03372 1-595): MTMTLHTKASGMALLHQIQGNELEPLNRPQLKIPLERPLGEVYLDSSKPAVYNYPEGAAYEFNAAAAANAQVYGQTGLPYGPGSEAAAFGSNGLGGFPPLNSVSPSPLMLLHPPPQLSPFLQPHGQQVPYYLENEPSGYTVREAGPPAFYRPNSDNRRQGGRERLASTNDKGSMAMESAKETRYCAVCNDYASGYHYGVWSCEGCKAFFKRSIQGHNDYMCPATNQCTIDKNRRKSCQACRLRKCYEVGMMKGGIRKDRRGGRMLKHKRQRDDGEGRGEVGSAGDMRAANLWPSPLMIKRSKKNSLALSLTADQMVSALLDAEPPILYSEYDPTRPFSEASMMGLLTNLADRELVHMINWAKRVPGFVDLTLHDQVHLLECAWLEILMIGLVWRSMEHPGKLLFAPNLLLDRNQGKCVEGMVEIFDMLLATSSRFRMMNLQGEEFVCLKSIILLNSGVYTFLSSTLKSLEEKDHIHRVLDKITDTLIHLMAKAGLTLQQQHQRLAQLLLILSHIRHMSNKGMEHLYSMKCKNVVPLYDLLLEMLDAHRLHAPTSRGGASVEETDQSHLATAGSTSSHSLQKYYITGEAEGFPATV
molecule,measurement,setting,value
"ER-#6: interaction blocker, ER fragment aa 312-340, as HA-tagged peptide, expression plasmid or cleaved peptide (ADQMVSALLDAEPPILYSEYDPTRPFSEA; also: HA tag (position not given here); UniProt P03372 312-340, looked up, fragment)","ER-TR2 interaction (GAL4-ER / VP16-TR2, pG5-CAT)",[1],suppressed
"TR2: human testicular orphan nuclear receptor 2, 603 amino acids (protein, UniProt P13056 1-603, looked up, full-length, human testicular orphan nuclear receptor 2, 603 amino acids) MATIEEIAHQIIEQQMGEIVTEQQTGQKIQIVTALDHNTQGKQFILTNHDGSTPSKVILARQDSTPGKVFLTTPDAAGVNQLFFTTPDLSAQHLQLLTDNSPDQGPNKVFDLCVVCGDKASGRHYGAVTCEGCKGFFKRSIRKNLVYSCRGSKDCIINKHHRNRCQYCRLQRCIAFGMKQDSVQCERKPIEVSREKSSNCAASTEKIYIRKDLRSPLTATPTFVTDSESTRSTGLLDSGMFMNIHPSGVKTESAVLMTSDKAESCQGDLSTLANVVTSLANLGKTKDLSQNSNEMSMIESLSNDDTSLCEFQEMQTNGDVSRAFDTLAKALNPGESTACQSSVAGMEGSVHLITGDSSINYTEKEGPLLSDSHVAFRLTMPSPMPEYLNVHYIGESASRLLFLSMHWALSIPSFQALGQENSISLVKAYWNELFTLGLAQCWQVMNVATILATFVNCLHNSLQQDKMSTERRKLLMEHIFKLQEFCNSMVKLCIDGYEYAYLKAIVLFSPDHPSLENMEQIEKFQEKAYVEFQDYITKTYPDDTYRLSRLLLRLPALRLMNATITEELFFKGLIGNIRIDSVIPHILKMEPADYNSQIIGHSI",DR1-HBV-LUC activity,TR2,induced
same,Intensity of ER-ERE supershift,"ER-ERE; increasing amount of TR2, absence or presence of 1 μM E2, Example 1",decreased
same,Intensity of ER-ERE complexes,"ER-ERE; increasing amounts of TR2, absence or presence of 10 nM E2, Example 2",decreased
"TR4: human testicular orphan nuclear receptor 4, SEQ ID NO:16; expressed from plasmid or in vitro translated (protein) MTSPSPRIQIISTDSAVASPQRIQGSEPASGPLSVFTSLNKEKIVTDQQTGQKIQIVTAVDASGSPKQQFILTSPDGAGTGKVILASPETSSAKQLIFTTSDNLVPGRIQIVTDSASVERLLGKTDVQRPQVVEYCVVCGDKASGRHYGAVSCEGCKGFFKRSVRKNLTYSCRSSQDCIINKHHRNRCQFCRLKKCLEMGMKMESVQSERKPFDVQREKPSNCAASTEKIYIRKDLRSPLIATPTFVADKDGARQTGLLDPGMLVNIQQPLIREDGTVLLATDSKAETSQGALGTLANVVTSLANLSESLNNGDTSEIQPEDQSASEITRAFDTLAKALNTTDSSSSPSLADGIDTSGGGSIHVISRDQSTPIIEVEGPLLSDTHVTFKLTMPSPMPEYLNVHYICESASRLLFLSMHRARSIPAFQGLGQDCNTSLVRACWNELFTLGLAQCAQVMSLSTILAAIVNHLQNSIQEDKLSGDRIKQVMEHIWKLQEFCNSMANWDIDGYEYAYLKAIVLFSPDHPGLTSTSQIEKFQEKAQMELQDYVQKTYSEDTYRLARILVRLPALRLMSSNITEELFFTGLIGNVSIDSIIPYILKMETAEYNGQITGVSL",ER-[32P]ERE binding band,ER-ERE; increasing amounts of in vitro expressed TR4,reduced
